In patent publication US20230173042A1, “METHODS OF TREATMENT WITH ASPARAGINASE” (JAZZ PHARMACEUTICALS IRELAND LTD., priority 2017, published 2023):

B1: Pegcrisantaspase: mPEG-r-crisantaspase conjugate: Erwinia chrysanthemi L-asparaginase conjugated to polyethylene glycol, prepared as set forth in U.S. Pat. No. 9,920,311 (conjugate, UniProt P06608 22-348, looked up)
L-asparaginase: ADKLPNIVILATGGTIAGSAATGTQTTGYKAGALGVDTLINAVPEVKKLANVKGEQFSNMASENMTGDVVLKLSQRVNELLARDDVDGVVITHGTDTVEESAYFLHLTVKSDKPVVFVAAMRPATAISADGPMNLLEAVRVAGDKQSRGRGVMVVLNDRIGSARYITKTNASTLDTFKANEEGYLGVIIGNRIYYQNRIDKLHTTRSVFDVRGLTSLPKVDILYGYQDDPEYLYDAAIQHGVKGIVYAGMGAGSVSVRGIAGMRKAMEKGVVVIRSTRTGNGIVPPDEELPGLVSDSLNPAHARILLMLALTRTSDPKVIQEYFHTY
modifications: mPEG conjugate
B2: Erwinia L-asparaginase: L-asparaginase protein from Erwinia chrysanthemi, named crisantaspase, marketed as Erwinase (protein, UniProt P06608 22-348, looked up)
L-asparaginase: B1 L-asparaginase
B3: Oncaspar: E. coli L-asparaginase modified at multiple lysine residues using 5 kDa mPEG-succinimidyl succinate (conjugate, UniProt P00805 23-348, looked up)
L-asparaginase 2: LPNITILATGGTIAGGGDSATKSNYTVGKVGVENLVNAVPQLKDIANVKGEQVVNIGSQDMNDNVWLTLAKKINTDCDKTDGFVITHGTDTMEETAYFLDLTVKCDKPVVMVGAMRPSTSMSADGPFNLYNAVVTAADKASANRGVLVVMNDTVLDGRDVTKTNTTDVATFKSVNYGPLGYIHNGKIDYQRTPARKHTSDTPFDVSKLNELPKVGIVYNYANASDLPAKALVDAGYDGIVSAGVGNGNLYKSVFDTLATAAKTGTAVVRSSRVPTGATTQDAEVDDAKYGFVASGTLNPQKARVLLQLALTQTKDPQQIQQIFNQY
modifications: 5 kDa mPEG-succinimidyl succinate on lysines
notes: E. coli L-asparaginase modified at multiple lysine residues using 5 kDa mPEG-succinimidyl succinate

Legend:
[1] = test system: HL-60 cell line; assay: Combination (synergy) cell proliferation assay with pegcrisantaspase; format: cell-based
Experimental: Plate preparation. The stocks of the mixtures and single agents were diluted in DMSO or 0.9% sodium chloride to generate a 7-points dose-response series. After further 31.6 times dilution in 20 mM sterile Hepes buffer pH 7.4 (reference compounds) or medium (pegcrisantaspase), 5 μl of pegcrisantaspase solution, and 5 μl of reference compound was added to 40 μl pre-plated cells in duplicate in a 384-well assay plate. The final DMSO concentration during incubation was 0.4% in all wells.
Cell proliferation assay. A cell assay stock was thawed and diluted in appropriate medium and dispensed in a 384-well plate, depending on the cell line used, at a concentration of 800-3200 cells per well in […]: i.e., DB: 800 cells per well; RL: 1000 cells per well; MV-4-11: 1600 cells per well; KG-1, HL-60 and HT 3200 cells per well. For each used cell line the cell density was optimized previously. The margins of the plate were filled with phosphate-buffered saline. Plated cells were incubated in a humidified atmosphere of 5% CO2 at 37° C. After 24 hours, 5 μl of pegcrisantaspase solution, and 5 μl of reference compound was added, and plates were further incubated for another 72 hours. After 72 hours, plates were cooled in 30 minutes to room temperature and 25 μl of ATPlite 1Step™ (PerkinElmer) solution was added to each well, and subsequently shaken for 2 minutes. After 5 minutes of incubation in the dark at room temperature, the luminescence was recorded on an Envision multimode reader (PerkinElmer).
Controls: t=0 signal. On a parallel plate, 40 μl cells were dispensed in quadruplicate and incubated in a humidified atmosphere of 5% CO2 at 37° C. After 24 hours, plates were cooled to room temperature in 30 minutes. 5 μl DMSO-containing Hepes buffer, 5 μl 0.9% sodium chloride-containing medium and 25 μl ATPlite 1Step™ solution were added and subsequently mixed for 2 minutes. Luminescence was measured after 10 minute incubation (=luminescencet=0) in the dark.
(§1) Cell growth control. The cellular doubling times of all cell lines are calculated from the t=0 hours and t=end growth signals of the untreated cells. If the doubling time is out of specification (0.5-2.0 times deviating from historic average) the assay is invalidated.
Maximum signals. On each 384-well plate, the maximum luminescence was recorded after incubation for 72 hours without compound in the presence of 0.4% DMSO. All equivalent wells (usually 14) were averaged. This average is defined as: luminescenceuntreated,t=72h. Dose response curves. Accurate single agent IC50s are needed for combination analysis. For each single agent its dose-response signal was fitted by a 4-parameter logistics curve using XL-fit 5 (IDBS software):
luminescence=bottom+(top-bottom)/(1+10^(logIC50−log[cpd])−hill))
[cpd] is the compound concentration tested. hill is the Hill-coefficient. Bottom and top are the asymptotic minimum and maximum of the curve. Combination Index (CI) determination. The CI is one of the most widely used quantitative indications of synergy. The CI evaluates the concentrations needed to achieve a fixed-effect. A CI of below 1 indicates synergy.
CI is defined for a certain percentage cell viability (V), which is the signal related to a non-exposed control: V=100%×luminescencetreated,t=72h/luminescenceuntreated,t=72h. The concentrations of the two compounds cpd1 and cpd2 needed to reach a certain percentage cell viability V in combination are then compared to the concentrations needed as single agents:
IC50,cpd1 would signify the IC50 of cpd1 alone. The CI is labelled by %-effect, to follow conventions, so CI75 signifies the CI at 25% viability Curve shift analysis. This analysis provides a visual confirmation of synergy^1. The concentrations of the mixtures of compounds 1 and 2 (cpd1 and cpd2), and the single agents, were expressed in terms of IC50 equivalents (in ‘units’ of IC50):
The dose-response signal was fitted by a 4-parameter logistics curve using XL-fit 5 (IDBS software)

[2] = test system: MV-4-11; assay: Oncolines cell proliferation assay (ATP luminescence); format: cell-based; details: MV-4-11, biphenotypic B myelomonocytic leukemia
Experimental: (§2) Cell preparation. All cell lines have been licensed from the American Type Culture Collection (ATCC) Manassas, Va. (US). Master and Working Cell banks (MCB and WCB) were prepared by subculturing in ATCC-recommended media and freezing according to ATCC recommended protocols (www.atcc.org).
(§3) Compound preparation. Test compounds were prepared as stock solutions in DMSO or aqueous buffers as appropriate and serially diluted to obtain a dilution series.
(§4) Cell proliferation assay. Cell proliferation was assessed using a commercially available luminescence assay using ATP as the endpoint.
(§5) Controls. t=0 signal. On a parallel plate, 45 μl cells were dispensed and incubated in a humidified atmosphere of 5% CO2 at 37° C. After 24 hours 5 μl DMSO-containing Hepes buffer and 25 μl ATPlite 1Step™ solution were mixed, and luminescence measured after 10 minute incubation (=luminescencet=0).
(§6) Reference compound. The IC50 of the reference compound doxorubicin is measured on a separate plate. The IC50 is trended. If the IC50 is out of specification (0.32-3.16 times deviating from historic average) the assay is invalidated.
as §1
(§7) Maximum signals. For each cell line, the maximum luminescence was recorded after incubation until t=end without compound in the presence of 0.4% DMSO (=luminescenceuntreated,t=end).
(§8) IC50 were calculated by non-linear regression using IDBS XLfit. The percentage growth after incubation until t=end (%-growth) was calculated as follows: 100%×(luminescencet=end/luminescenceuntreated,t=end). This was fitted to the ^10log compound concentration (conc) by a 4-parameter logistics curve: %-growth=bottom+(top−bottom)/(1+10^(logIC50-conc)*hill)) where hill is the Hill-coefficient, and bottom and top the asymptotic minimum and maximum cell growth that the compound allows in that assay.
(§9) NCI60 parameters. The LD50, the concentration at which 50% of cells die, is the concentration where luminescencet=end=½×luminescencet=0h. […] This is concentration associated with the signal: ((luminescenceuntreated,t=end−luminescencet=0)/2)+luminescencet=0.
(§10) Curve fitting. […] The hill was fixed on −6 when the software calculated a lower value. […] Incidentally, when technical failures were likely, concentration points were knocked out.
(§11) The special volcano plot of FIG. 9 relates compound sensitivity (as measured by ^10logIC50) to the presence of cancer hotspot mutations. […] The hotspot mutations were derived from statistical analyses of the recurrence patterns of mutations and copy number alterations in patients through separate studies. Axes and statistical analyses are identical to the volcano plot of FIG. 8. The cutoff p-level for significance is 0.32. […] Effect20 For determination of the effect of the compound on the activity of other anti-cancer agents in SynergyScreen™ experiments, a low, fixed concentration is used, corresponding to the concentration at which cell growth is inhibited by 20%.

[3] = test system: RL; assay: as above; format: cell-based; details: non-Hodgkin's lymphoma, B lymphoblast
Experimental: as §2, §3, §4, §5, §6, §1, §7, §8, §9, §10, §11

[4] = test system: HL-60; assay: as above; format: cell-based; details: HL-60, acute promyelocytic leukemia
Experimental: as §2, §3, §4, §5, §6, §1, §7, §8, §9, §10, §11

[5] = test system: THP-1; assay: as above; format: cell-based; details: THP-1, acute monocytic leukemia
Experimental: as §2, §3, §4, §5, §6, §1, §7, §8, §9, §10, §11

[6] = test system: HT; assay: as above; format: cell-based; details: diffuse mixed lymphoma, B lymphoblast
Experimental: as §2, §3, §4, §5, §6, §1, §7, §8, §9, §10, §11

[7] = test system: MOLT-4; assay: as above; format: cell-based; details: MOLT-4, acute lymphoblastic leukemia (ALL)
Experimental: as §2, §3, §4, §5, §6, §1, §7, §8, §9, §10, §11

[8] = test system: HT-1080; assay: as above; format: cell-based; details: HT-1080, fibrosarcoma
Experimental: as §2, §3, §4, §5, §6, §1, §7, §8, §9, §10, §11

[9] = test system: U-87-MG; assay: as above; format: cell-based; details: glioblastoma, brain
Experimental: as §2, §3, §4, §5, §6, §1, §7, §8, §9, §10, §11

[10] = test system: DB; assay: as above; format: cell-based; details: large cell lymphoma, B lymphoblast
Experimental: as §2, §3, §4, §5, §6, §1, §7, §8, §9, §10, §11

[11] = test system: KG-1; assay: as above; format: cell-based; details: KG-1, acute myelogenous leukemia (AML)
Experimental: as §2, §3, §4, §5, §6, §1, §7, §8, §9, §10, §11

[12] = In vivo test of mPEG-r-crisantaspase with cytarabine and daunorubicin (tolerability, body weight); details: mice; PegC 5 & 50 IU/kg as single agent and with cytarabine 50 mg/kg and daunorubicin 1 mg/kg
[13] = in vivo; cited from earlier work
[14] = children who received the drug; cited from earlier work
[15] = PEGylated enzyme relative to unmodified enzyme; cited from earlier work
[16] = pegcrisantaspase with ABT-747, average Combination Index of the mixtures at ED50, HL-60

Row | Molecule | Curve shift ([1]; pegcrisantaspase with ABT-747, HL-60, leftward shift indicates synergy) | Average CI value 1:1, 1:2 and 2:1 [1, 16] | Average CI value 1:1, 1:5 and 5:1 [1, 16] | Average CI value 1:1, 1:10 and 10:1 [1, 16] | IC50 (IU/mL) ([1]; single agent, HL-60, 72 hours) | maximal effect ([1]; single agents, dose-response curves of FIG. 3, HL-60) | Effect20 (concentration at which cell growth is inhibited by 20%) [2] | Effect20 (concentration at which cell growth is inhibited by 20%) [3] | Effect20 (concentration at which cell growth is inhibited by 20%) [4] | Effect20 (concentration at which cell growth is inhibited by 20%) [5] | Effect20 (concentration at which cell growth is inhibited by 20%) [6] | Effect20 (concentration at which cell growth is inhibited by 20%) [7] | Effect20 (concentration at which cell growth is inhibited by 20%) [8] | Effect20 (concentration at which cell growth is inhibited by 20%) [9] | Effect20 (concentration at which cell growth is inhibited by 20%) [10] | Effect20 (concentration at which cell growth is inhibited by 20%) [11] | tolerability [12] | patients antibody-positive [13] | children who had an allergic reaction [14] | in vitro activity compared to the unmodified L-asparaginase [15]
1 | B1 | yes | 0.26 | 0.29 | 0.33 | 0.070 IU/mL | 88% | 0.0088 IU/mL | 0.037 IU/mL | 0.00028 IU/mL | 0.012 IU/mL | 0.033 IU/mL | 0.00019 IU/mL | 0.013 IU/mL | 0.057 IU/mL | 0.059 IU/mL | 0.00018 IU/mL | well tolerated |  |  | 
2 | B2 |  |  |  |  |  |  |  |  |  |  |  |  |  |  |  |  |  | 30-50% |  | 
3 | B3 |  |  |  |  |  |  | 0.26 IU/mL | 0.37 IU/mL | 0.0003 IU/mL | 0.31 IU/mL | 0.28 IU/mL | 0.00019 IU/mL | 0.00025 IU/mL | 0.4 IU/mL | 0.47 IU/mL | 0.0001 IU/mL |  |  | 30-41% | approximately 50%
